Test results from patent US20180369341A1.

Assays:
FcRn [1] = test: FcRn binding assay (method not described); Aggregation Study, albiglutide in NaCl, octanoate and cysteine formulation, stored at 2-8°C for 2 months
FcRn [2] = test: FcRn binding assay (method not described); Aggregation Study, albiglutide in NaCl + cysteine formulation, stored at 2-8°C for 2 months
[3] = molecular target: human GLP-1 receptor (human) (UniProt P43220); test: cell-based or functional assay
FcRn [4] = test: FcRn binding assay (method not described); Aggregation Study, albiglutide in NaCl, octanoate and cysteine formulation, stored at 30°C for 2 months
FcRn [5] = test: FcRn binding assay (method not described); Aggregation Study, albiglutide in NaCl + cysteine formulation, stored at 30°C for 2 months

Sequence of UniProt P43220 (P43220 24-463): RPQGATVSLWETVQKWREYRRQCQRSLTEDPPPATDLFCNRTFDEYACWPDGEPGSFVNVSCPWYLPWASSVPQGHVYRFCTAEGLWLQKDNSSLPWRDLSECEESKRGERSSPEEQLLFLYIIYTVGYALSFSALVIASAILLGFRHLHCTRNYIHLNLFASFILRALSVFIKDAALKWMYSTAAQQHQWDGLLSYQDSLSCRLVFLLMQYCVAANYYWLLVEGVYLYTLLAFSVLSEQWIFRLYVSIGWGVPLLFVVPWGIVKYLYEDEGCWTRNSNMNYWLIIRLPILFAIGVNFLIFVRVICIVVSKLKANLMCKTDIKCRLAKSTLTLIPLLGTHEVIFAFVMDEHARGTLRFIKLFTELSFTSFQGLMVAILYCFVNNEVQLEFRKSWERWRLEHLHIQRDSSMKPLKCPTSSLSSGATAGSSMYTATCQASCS

Question: “albiglutide (from UniProt P02768 25-609) (ligand)” was tested. Which decrease in FcRn binding (FcRn [1]) did it give?
Answer: Its decrease in FcRn binding is 16%.

Question: And the decrease in FcRn binding (FcRn [2])?
Answer: Its decrease in FcRn binding is 6%.

Question: And the Bioassay potency; Aggregation Study, all formulations, 2 months 30°C (lower end) [3]?
Answer: Its Bioassay potency; Aggregation Study, all formulations, 2 months 30°C (lower end) is 130%.

Question: And the Bioassay potency; Aggregation Study, all formulations, 2 months 30°C (upper end) [3]?
Answer: The Bioassay potency; Aggregation Study, all formulations, 2 months 30°C (upper end) was 160%.

Question: And the Bioassay potency; PFS Study, Variations A and B, 1 month 40°C [3]?
Answer: The Bioassay potency; PFS Study, Variations A and B, 1 month 40°C was 180%.

Question: What about the Bioassay potency; PFS Study, all variations, 3 months 30°C [3] of the same substance?
Answer: The Bioassay potency; PFS Study, all variations, 3 months 30°C was 130%.

Question: What about the decrease in FcRn binding (FcRn [4]) of the same substance?
Answer: Its decrease in FcRn binding is 23%.

Question: What about the decrease in FcRn binding (FcRn [5]) of the same substance?
Answer: Its decrease in FcRn binding is 23%.
